The source of these data is paper PMC8967061.

In the assay the target is Factor H domains 19-20 (human) (UniProt P08603). Nature of the assay: MST; FH19-20 labelled with RED-tris-NTA dye (300 nM stock, mixed 1:1 with ligand), FhbA proteins titrated, PBS/0.025% Tween-20, 22 C.
Sequence of Factor H domains 19-20 (human) (P08603 1104-1231): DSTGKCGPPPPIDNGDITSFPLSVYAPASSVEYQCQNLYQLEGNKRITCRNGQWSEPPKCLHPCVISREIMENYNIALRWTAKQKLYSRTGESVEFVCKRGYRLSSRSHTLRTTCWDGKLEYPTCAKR

Consider “BhFhbA Phe154Ala (from UniProt W5SB08 44-202) (domain or fragment)”, for which the Kd (in general, the free concentration of one partner at which half of the binding sites on the other are occupied at equilibrium, for simple one-to-one binding) amounted to 6 µM.
The result for “FhbA homologue from Borrelia duttonii, wild type (natural protein)” reads 1.06 µM.
